Reference: patent publication US20230303689A1 (published 2023)

Molecular target: human PD-1 expressed on cells (HuT78/PD-1, NK92MI/PD-1) (human, UniProt Q15116 25-288)
Assay: FACS binding (MFI)

Sequence of human PD-1 expressed on cells (HuT78/PD-1, NK92MI/PD-1) (Q15116 25-288): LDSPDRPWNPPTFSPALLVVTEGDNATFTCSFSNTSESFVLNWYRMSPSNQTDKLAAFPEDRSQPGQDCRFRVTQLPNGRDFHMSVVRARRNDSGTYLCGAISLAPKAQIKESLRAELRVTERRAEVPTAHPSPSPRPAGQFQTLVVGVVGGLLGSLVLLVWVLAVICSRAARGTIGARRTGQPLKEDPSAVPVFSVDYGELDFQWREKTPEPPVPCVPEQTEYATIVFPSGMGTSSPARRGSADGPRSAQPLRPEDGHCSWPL

- EC50: 0.105 µg/mL
B1: murine mAb 317 (antibody, V domains shown)
VH: QVQLKESGPGLVAPSKNLSITCTVSGFSLTSYGVHWIRQPPGKGLEWLGVIWAGGSTNYNSALMSRLSISKDNSRSQVFLRMNSLQTDDTAMYYCARAYGNYWYIDVWGAGTTVTVSS
VL: DIVMTQTPKFLLVSAGDRVTITCKASQSVSNDVAWYQQKPGQSPKLLINYAFHRFTGVPDRFTGSGYGTDFIFTISTVQAEDLAVYFCHQAYSSPYTFGGGTKLEMK
